Consider two molecules from patent US20140336127A1, “Stabilized Peptide Helices For Inhibiting Dimerization Of Chemokine C Motif Receptor 2 (CCR2)” (Yissum Research Development Company of the Hebrew …, priority 2012, published 2014).

Starred links: 1 amine or outer side, 2 acyl side, 3 side chain; linkers in the order of their positions; H or OH if unused. Positions of bridges follow the written chain, without caps; N, C: chain ends. Non-standard residues stand in square brackets, D forms with d. Residues, ends and D or L forms follow the SMILES beside them. No end group written: not given here. BU = not defined here; CO = O=C([*:1])[*:2]

One data set deals with intestinal peptidases. In words: metabolic stability BBMV assay (degradation by intestinal peptidases). In kind it is in vitro ADME, rat. The settings on record: 37° C. As for the experimental part:
The enzymatic reaction is performed similar to what described in Ovadia et al. (2009, Bioorg Med Chem 18, 580-589): 2 mM stock solutions of the tested compounds are diluted with serum or purified brush border membrane vesicles (BBMVs) solution to a final concentration of 0.5 mM. During incubation at 37° C. samples are taken for a period of 90 minutes. The enzymatic reaction is stopped by adding 1:1 v/v of ice cold acetonitrile and centrifuge (4000 g, 10 min) before analysis.
The BBMVs are prepared from combined duodenum, jejunum, and upper ileum (male Wistar rats) by a Ca++ precipitation method (Gante, J., Angew Chem Int Edit 1994, 33, (17), 1699-1720; Hess et al., ibid). Purification of the BBMVs is assayed using GGT, LAP and alkaline phosphatase as membrane enzyme markers.
M3D-1 was tested for metabolic stability to degradation by intestinal peptidases using the BBMV assay described above. The linear CCR2b(61-67) peptide was used as a control.

A further data set addresses T1, CCR2 (Homo sapiens, UniProt P41597).
T1 construct: endogenous in cells; host or cells: THP-1
T1 sequence (P41597 1-360 isoform P41597-2): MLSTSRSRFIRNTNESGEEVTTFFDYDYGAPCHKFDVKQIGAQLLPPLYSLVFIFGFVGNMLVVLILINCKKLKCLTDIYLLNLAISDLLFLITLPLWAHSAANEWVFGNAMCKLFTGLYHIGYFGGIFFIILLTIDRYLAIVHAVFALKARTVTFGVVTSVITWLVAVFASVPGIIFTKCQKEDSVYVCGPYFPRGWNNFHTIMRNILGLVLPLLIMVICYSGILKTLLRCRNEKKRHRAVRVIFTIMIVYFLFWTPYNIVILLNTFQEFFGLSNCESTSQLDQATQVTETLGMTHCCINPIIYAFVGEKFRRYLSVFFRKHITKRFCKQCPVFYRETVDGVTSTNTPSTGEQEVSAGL
The experiment in a line: transwell migration assay with MCP-1 as chemoattractant (THP-1 cells). In kind it is cell-based. The procedure:
A transwell migration assay (Bignold, L. P., J Immunol Methods 1987, 105, (2), 275-80) was performed using MCP-1 as a chemoattractant. The chemokine MCP-1 reacts only with the chemokine receptors CCR2 and CCR4. […] In this experiment, THP-1 cells were placed in the upper well of the trans-migration plate and specific migration was induced by placing MCP-1 in the lower well. The cells were allowed to migrate spontaneously or toward the chemokine, and counted after migration. To evaluate the effect of hCCR2b(61-67) on MCP-1-induced migration, the peptide (10 μM) was incubated with the cells and the number of migrating cells in the lower wells were determined.
(§1) The simple transwell migration assay (Mandelboim, O. Protocol Exchange (2006) doi:10.1038/nprot.2006.210) was used for evaluating the chemotactic migration in the presence of M3D-1. M3D-1 inhibited THP-1 cells migration towards MCP-1 (FIG. 7 stripes).

A further data set has as its target T2, CXCR4 (Homo sapiens, UniProt P61073).
T2 construct: endogenous in cells; host or cells: THP-1 (inferred; b171 says only 'cells')
In words: transwell migration assay, SDF-1 (CXCL12) induced migration. The class given is cell-based. The settings on record: cells migrating towards SDF-1; FIG. 7 crosshatch.
From the text: as §1
SDF-1 is known to have strong chemotactic effects following specific interaction with the receptor CXCR4 (Bleul et al., ibid).

For the next data set, the system named is THP-1 cells. The experiment in a line: spontaneous migration of THP-1 cells without additional chemokines. The class given is cell-based, human. The settings on record: FIG. 7 dots. The procedure: THP-1 cells spontaneous migration was evaluated without additional chemokines.
For the next data set, the system named is cells. In words: in vitro cytotoxicity assay. In kind it is cell-based.

T2 sequence (P61073 whole entry): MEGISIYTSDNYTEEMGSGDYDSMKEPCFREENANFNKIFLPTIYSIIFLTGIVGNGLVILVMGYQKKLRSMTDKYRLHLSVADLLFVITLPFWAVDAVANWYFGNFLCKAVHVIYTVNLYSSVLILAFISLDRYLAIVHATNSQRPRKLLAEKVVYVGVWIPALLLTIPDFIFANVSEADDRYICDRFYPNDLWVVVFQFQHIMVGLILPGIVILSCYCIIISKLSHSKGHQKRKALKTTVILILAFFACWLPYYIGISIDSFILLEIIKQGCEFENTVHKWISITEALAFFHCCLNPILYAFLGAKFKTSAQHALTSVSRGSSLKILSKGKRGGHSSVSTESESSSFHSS

As for `CC[C@H](C)[C@H](NC(=O)[C@H](CC(C)C)NC(=O)[C@@H](NC(=O)[C@@H](NC(=O)[C@H](CC(C)C)NC(=O)[C@@H](N)CCSC)C(C)C)C(C)C)C(=O)N[C@@H](CC(C)C)C(=O)O` [hCCR2b(61-67), MLVVLIL] (H-MLVVLIL-OH; N-terminus and C-terminus assumed), the “degradation by intestinal peptidases” value in the data set with intestinal peptidases (FIG. 9, linear control peptide) is “completed degraded after about one hour”.

Take “M-L-V-BU-L-I-BU-NH2 (MLV[BU]LI[BU]-NH2; bridge 4-7 via CO; reading uncertain; also: printed as M-L-V-BU-L-I-BU-NH2) [M3D-1]”: in the data set with CCR2 (THP-1 cells migrating towards MCP-1, concentration not given, FIG. 2 / FIG. 7), the “inhibition of MCP-1-mediated migration” value was “inhibited”. Further, in the data set with CCR2 (summary statement in the description), the “concentration range blocking specific CCR2 chemokine mediated cell migration” value is on record as “low micro-molar range”. Further, the “inhibition of SDF-1 induced migration” value with CXCR4 is “no significant inhibition”. For the same molecule, the “number of cells that migrate in the absence of chemokine, with or without peptide” value in the data set with THP-1 cells is on record as “no significant difference”. Also, the toxicity to cells entry in the data set with cells is reported as “not toxic to cells”. In addition, the “time stable to degradation by intestinal peptidases” value with intestinal peptidases (FIG. 9) is given as “at least 3 hours”.
